Reference: patent US20130184211A1 (NEW YORK UNIVERSITY, published 2013)

Columns and labels:
[1] = target: T1, 1:1 binary complex of the ectodomains of FGFR1c and Klotho (human; murine, UniProt O35082 35-982); assay: SPR competition dose-response: FGF23^180-205 mixed with a fixed concentration of FGFR1c-Klotho, immobilized FGF23^28-251 as competitor; averaged data of two to three experiments
T1 construct: range 35-982; also called FGFR1c-Klotho complex; binary FGFR1c-Klotho complex; not shown: C-terminal FLAG tag
T1 sequence 1: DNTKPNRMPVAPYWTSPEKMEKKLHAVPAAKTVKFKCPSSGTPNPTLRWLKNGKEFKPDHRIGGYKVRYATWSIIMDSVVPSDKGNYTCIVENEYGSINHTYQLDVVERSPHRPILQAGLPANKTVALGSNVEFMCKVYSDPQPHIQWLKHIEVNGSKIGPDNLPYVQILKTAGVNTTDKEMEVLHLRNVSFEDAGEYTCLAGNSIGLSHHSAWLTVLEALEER
T1 sequence 2: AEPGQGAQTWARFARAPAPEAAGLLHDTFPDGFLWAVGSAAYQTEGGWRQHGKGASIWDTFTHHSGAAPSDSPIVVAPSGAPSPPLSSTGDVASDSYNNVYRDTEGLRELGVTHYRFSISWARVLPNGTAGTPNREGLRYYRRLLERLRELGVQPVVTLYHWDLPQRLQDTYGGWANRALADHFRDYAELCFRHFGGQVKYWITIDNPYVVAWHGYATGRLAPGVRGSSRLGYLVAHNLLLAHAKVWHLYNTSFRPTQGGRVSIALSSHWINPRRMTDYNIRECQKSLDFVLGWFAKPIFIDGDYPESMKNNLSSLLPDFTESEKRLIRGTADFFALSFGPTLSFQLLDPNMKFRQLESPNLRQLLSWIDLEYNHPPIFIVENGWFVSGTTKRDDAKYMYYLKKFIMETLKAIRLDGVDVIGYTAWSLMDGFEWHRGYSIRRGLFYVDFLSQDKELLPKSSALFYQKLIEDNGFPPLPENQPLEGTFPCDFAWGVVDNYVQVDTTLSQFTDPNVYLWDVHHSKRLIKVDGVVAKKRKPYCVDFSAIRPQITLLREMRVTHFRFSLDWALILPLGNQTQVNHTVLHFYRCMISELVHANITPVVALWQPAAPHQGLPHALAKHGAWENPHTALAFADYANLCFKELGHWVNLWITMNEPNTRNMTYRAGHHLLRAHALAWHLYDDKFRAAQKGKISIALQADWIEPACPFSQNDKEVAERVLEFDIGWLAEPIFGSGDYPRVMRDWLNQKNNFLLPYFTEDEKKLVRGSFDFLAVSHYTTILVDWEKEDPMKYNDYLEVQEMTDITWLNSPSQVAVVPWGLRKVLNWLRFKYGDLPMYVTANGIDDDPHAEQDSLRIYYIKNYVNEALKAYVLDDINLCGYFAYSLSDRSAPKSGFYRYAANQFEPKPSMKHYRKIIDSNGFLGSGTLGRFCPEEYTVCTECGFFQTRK
Description: To analyze FGF23 binding to the binary FGFR1c-Klotho complex, FGF23²⁸⁻²⁵¹ was coupled to a chip, and increasing concentrations of 1:1 complex of the ectodomains of FGFR1c and Klotho in HBS-EP buffer were passed over the chip. To measure binding of the C-terminal tail of FGF23 to the binary FGFR1c-Klotho complex, FGF23¹⁸⁰⁻²⁵¹ was immobilized on a chip, and increasing concentrations of 1:1 complex of the ectodomains of FGFR1c and Klotho in HBS-EP buffer were passed over the chip. To examine whether the C-terminal tail of FGF23 can compete with full-length FGF23 for binding to the binary FGFR1c-Klotho complex, FGF23²⁸⁻²⁵¹ was immobilized on a chip. Increasing concentrations of FGF23¹⁸⁰⁻²⁵¹ were mixed with a fixed concentration of 1:1 complex of the ectodomains of FGFR1c and Klotho in HBS-EP buffer, and the mixtures were passed over the chip. As a control, competition of FGF23 in solution with immobilized FGF23 for binding to the binary FGFR1c-Klotho complex was studied. Increasing concentrations of FGF23²⁸⁻²⁵¹ were mixed with a fixed concentration of 1:1 complex of the ectodomains of FGFR1c and Klotho in HBS-EP buffer, and the mixtures were passed over the FGF23 chip. […] As a control, competition of FGF23 C-terminal tail peptide in solution with immobilized FGF23 C-terminal tail peptide for binding to the binary FGFR1c-Klotho complex was analyzed. […]

[2] = target: T2, complex of V5-tagged FGFR3c and FLAG-tagged membrane-spanning murine Klotho isolated from transfected … (murine, UniProt O35082 35-1014); assay: co-immunoprecipitation competition; competitor FGF23^28-251 (1 nM)
T2 construct: Isolated from cell lysate on anti-V5 agarose beads; also called FGFR3c-Klotho complex; binary FGFR-Klotho complex; not shown: FGFR3c, V5-tagged, expressed from a vector in HEK293-Klotho cells
Description: (§1) Co-immunoprecipitation may also be used to determine that an agent specifically binds the binary FGFR-Klotho complex. One aspect of the present invention utilizes co-immunoprecipitation studies. Subconfluent cultures of a HEK293 cell line ectopically expressing the FLAG-tagged membrane-spanning form of murine Klotho were transfected with expression vectors for V5-tagged FGFR1c, FGFR3c, or FGFR4. Two days later, the cells were lysed, and FGFR-Klotho complexes were isolated from cell lysate using anti-V5 agarose beads. The beads were then incubated with either FGF23¹⁸⁰⁻²⁵¹ or FGF23²⁸⁻²⁵¹ alone, or with mixtures of FGF23²⁸⁻²⁵¹ with either increasing FGF23¹⁸⁰⁻²⁵¹ or increasing FGF23¹⁸⁰⁻²⁰⁵. Bead-bound proteins were resolved on SDS-polyacrylamide gels, transferred to nitrocellulose membranes, and labeled using antibodies to Klotho, FGF23, and V5 epitope tag.

[3] = target: T3, complex of V5-tagged FGFR1c and FLAG-tagged membrane-spanning murine Klotho isolated from transfected … (murine, UniProt O35082 35-1014); assay: as above
T3 construct: Isolated from cell lysate on anti-V5 agarose beads; also called FGFR1c-Klotho complex (co-immunoprecipitated); binary FGFR-Klotho complex; not shown: FGFR1c, V5-tagged, expressed from a vector in HEK293-Klotho cells
Description: as §1

T2 sequence (O35082 35-1014, one chain of several): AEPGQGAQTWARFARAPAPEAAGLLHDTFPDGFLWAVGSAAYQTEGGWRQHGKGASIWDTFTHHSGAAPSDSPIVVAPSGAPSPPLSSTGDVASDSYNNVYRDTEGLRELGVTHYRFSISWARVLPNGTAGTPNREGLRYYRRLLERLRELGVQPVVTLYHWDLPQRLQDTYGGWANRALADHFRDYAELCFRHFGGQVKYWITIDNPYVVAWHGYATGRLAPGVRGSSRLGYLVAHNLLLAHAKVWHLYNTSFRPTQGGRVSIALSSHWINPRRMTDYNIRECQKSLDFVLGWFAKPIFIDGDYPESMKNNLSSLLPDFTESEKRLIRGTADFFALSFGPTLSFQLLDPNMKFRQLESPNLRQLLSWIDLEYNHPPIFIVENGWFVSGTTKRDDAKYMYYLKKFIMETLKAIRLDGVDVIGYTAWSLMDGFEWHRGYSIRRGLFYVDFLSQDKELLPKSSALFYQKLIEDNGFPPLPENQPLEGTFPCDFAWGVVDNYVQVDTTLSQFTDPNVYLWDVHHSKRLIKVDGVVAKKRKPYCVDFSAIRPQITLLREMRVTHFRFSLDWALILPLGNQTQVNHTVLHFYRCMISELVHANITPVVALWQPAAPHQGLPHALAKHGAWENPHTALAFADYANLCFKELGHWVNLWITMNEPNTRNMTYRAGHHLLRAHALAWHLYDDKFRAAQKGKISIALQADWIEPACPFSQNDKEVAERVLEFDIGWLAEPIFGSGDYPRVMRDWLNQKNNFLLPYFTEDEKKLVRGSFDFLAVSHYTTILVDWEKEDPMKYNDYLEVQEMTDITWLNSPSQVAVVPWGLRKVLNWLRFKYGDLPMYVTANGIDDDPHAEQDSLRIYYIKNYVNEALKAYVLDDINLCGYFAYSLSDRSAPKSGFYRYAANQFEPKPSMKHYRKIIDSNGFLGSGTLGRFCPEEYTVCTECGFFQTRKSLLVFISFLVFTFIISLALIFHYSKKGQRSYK

B1: FGF23 C-terminal region peptide (S180 to S205), FGF23^180-205 (peptide)
peptide: SAEDDSERDPLNVLKPRARMTPAPAS
notes: Made by solid phase synthesis (GenScript)
- IC50 (read off the curve) [1]: ~100 nM

B2: N-terminally hexahistidine-tagged 72-amino acid C-terminal tail of human FGF23 (S180 to I251), FGF23^180-251 (peptide)
peptide: SAEDDSERDPLNVLKPRARMTPAPASCSQELPSAEDNSPMASDPLGVVRGGRVNTHAGGTGPEGCRPFAKFI
notes: Expressed in E. coli; also called FGF23 C-terminal tail peptide; C-terminal tail of FGF23; not shown: N-terminal hexahistidine tag (six His)
- molar excess over FGF23^28-251 that completely blocked its binding [2]: 76 fold molar excess
- molar excess over FGF23^28-251 that completely blocked its binding [3]: 76 fold molar excess
